Data: patent US20230099801A1, “RESTORATION OF T CELL ACTIVITY VIA THE CD39/CD73 AXIS” (INNATE PHARMA, priority 2017, published 2023)
Entries after “also recorded” stand apart in the source; their conditions may differ.

Columns and labels:
[1] = biological target: T1, cell-membrane bound CD39 (CD39-expressing cells) (Homo sapiens, UniProt P49961); experiment: Inhibition of the enzymatic activity of cellular CD39, Cell Titer Glo; assay type: cell-based
T1 construct: host or cells: CD39-expressing cells
T1 sequence (P49961 1-510): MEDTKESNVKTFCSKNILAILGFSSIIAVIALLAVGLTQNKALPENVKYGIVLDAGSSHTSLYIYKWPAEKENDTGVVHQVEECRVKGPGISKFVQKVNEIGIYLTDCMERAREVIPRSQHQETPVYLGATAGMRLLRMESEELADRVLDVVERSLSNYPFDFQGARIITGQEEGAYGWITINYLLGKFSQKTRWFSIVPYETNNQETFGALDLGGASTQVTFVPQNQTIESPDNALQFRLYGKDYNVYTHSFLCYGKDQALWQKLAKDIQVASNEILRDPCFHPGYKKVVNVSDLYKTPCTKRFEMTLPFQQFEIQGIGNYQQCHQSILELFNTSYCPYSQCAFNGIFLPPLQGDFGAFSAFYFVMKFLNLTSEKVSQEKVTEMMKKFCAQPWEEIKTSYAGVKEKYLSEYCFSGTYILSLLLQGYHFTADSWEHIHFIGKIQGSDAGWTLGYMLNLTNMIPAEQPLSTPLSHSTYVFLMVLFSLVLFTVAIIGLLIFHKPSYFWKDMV
Method: The ability of an antibody to inhibit cells expressing CD39 protein can be tested by detecting ATP after incubating test antibody with cells (e.g., Ramos cells, cells transfected with CD39, etc.). See, e.g., Example 1. Cells can be incubated for 1 hour at 37° C. with test antibody. Cells are then incubated with 20 μM ATP for 1 additional hour at 37° C. Plates are centrifuged for 2 min at 400 g and cell supernatant are transferred in a luminescence microplate (white wells). CTG is added to the supernatant and emitted light is quantified after a 5 min incubation in the dark using an Enspire™ luminometer. Anti-CD39 antibody efficacy is determined by comparing emitted light in presence of antibody with ATP alone (maximal light emission) and ATP together with cells (minimal light emission).
The inhibition of the CD39 enzymatic activity in CD39-expressing cells by antibodies was evaluated using Cell Titer Glo™ (Promega, reference G7571) that allows assessment of ATP hydrolysis through use of a reagent that generates a luminescent signal proportional to the amount of ATP present. […] Plates were centrifuged for 2 min at 400 g and 50 μl cell supernatant are transferred in a luminescence microplate (white wells). 50 μl CellTiter-Glo® Reagent (CTG) was added to the supernatant and emitted light was quantified after a 5 min incubation in the dark using a Enspire™ luminometer. […]

CD8 T cells = experiment: T cell proliferation assay in presence of added ATP, CD8 T cells; assay type: cell-based, human
Method: Peripheral blood from healthy donors was obtained from EFS, and mononuclear cells were isolated on a Ficoll gradient. Lymphocytes were further enriched on a 52% Percoll gradient by collection of the cell pellets and stained with a Cell Trace dye (Thermofisher) following the TDS provided by the manufacturer. […] Inhibition of T cell proliferation was achieved by addition of ATP (200 μM). T cell proliferation and ability of Abs to block immune suppressive effect of AMP were assessed by flow cytometry by quantifying the dye dilution in the proliferating T cell subset.
Percentage of proliferating T cells vs. anti-CD73 Ab concentration is plotted in graphs using GraphPad Prism software.

[2] = test system: cynomolgus CD39 (CHO-cyCD39); experiment: Inhibition of cellular CD39 ATPase activity in CHO-cyCD39 cells; assay type: cell-based, cynomolgus (Macaca fascicularis)
Method: The inhibition of the CD39 enzymatic activity in CD39-expressing cells by antibodies was evaluated using Cell Titer Glo™ (Promega, reference G7571) that allows assessment of ATP hydrolysis through use of a reagent that generates a luminescent signal proportional to the amount of ATP present. The assay was thus designed to permit assessment of the inhibition of ATP hydrolyzed by CD39 in the cell culture supernatant. Briefly, 5×10^4 Ramos human lymphoma cells, 5×10^3 human CD39-, cynomolgus CD39—and mouse CD39-expressing CHO cells, were incubated 1 hour at 37° C. with anti-CD39 antibodies from 30 μg/ml to 5×10^−4 μg/ml. Cells were then incubated with 20 μM ATP for 1 additional hour at 37° C. Plates were centrifuged for 2 min at 400 g and 50 μl cell supernatant are transferred in a luminescence microplate (white wells). 50 μl CellTiter-Glo® Reagent (CTG) was added to the supernatant and emitted light was quantified after a 5 min incubation in the dark using a Enspire™ luminometer. Anti-CD39 antibody efficacy was determined by comparing emitted light in presence of antibody with ATP alone (maximal light emission) and ATP together with cells (minimal light emission).

[3] = biological target: T2, soluble recombinant human CD39 protein (Homo sapiens, UniProt P49961); experiment: Inhibition of the enzymatic (ATPase) activity of soluble CD39, Cell Titer Glo; assay type: biochemical
T2 construct: made in house; host or cells: CHO cells
T2 sequence (P49961 with tags, fused parts or gaps): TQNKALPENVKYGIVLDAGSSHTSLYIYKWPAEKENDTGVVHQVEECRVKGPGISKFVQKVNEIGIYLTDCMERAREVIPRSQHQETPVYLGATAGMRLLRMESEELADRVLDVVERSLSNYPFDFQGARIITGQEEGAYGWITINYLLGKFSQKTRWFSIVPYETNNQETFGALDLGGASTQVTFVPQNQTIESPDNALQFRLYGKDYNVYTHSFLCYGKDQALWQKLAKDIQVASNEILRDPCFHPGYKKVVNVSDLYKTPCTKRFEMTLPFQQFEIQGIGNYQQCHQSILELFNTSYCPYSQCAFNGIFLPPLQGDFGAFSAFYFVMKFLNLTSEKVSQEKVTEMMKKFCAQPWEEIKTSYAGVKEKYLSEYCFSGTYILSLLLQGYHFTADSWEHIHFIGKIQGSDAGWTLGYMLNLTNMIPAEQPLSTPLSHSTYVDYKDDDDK
Method: The ability of an antibody to inhibit soluble recombinant human CD39 protein can be tested by detecting ATP after incubating test antibody with soluble CD39 protein (e.g., the CD39 protein having the amino acid sequence of SEQ ID NO: 5, as produced in Example 1, optionally further comprising a purification tag or other functional or non-functional non-CD39-derived amino acid sequence). See, e.g., Example 1. Briefly, ATP can be quantified using the Cell Titer Glo™ (Promega), in an assay in which dose ranges of test antibody are incubated with soluble recombinant human CD39 protein described in Example 1, for 1 hour at 37° C. 20 μM ATP are added to the plates for 30 additional minutes at 37° C. before addition of CTG reagent. Emitted light is quantified using an Enspire™ luminometer after a short incubation period of 5 min in the dark.
The inhibition by antibodies of the enzymatic activity of soluble CD39 protein produced was evaluated using Cell Titer Glo™ (Promega, reference G7571) that allows assessment of ATP hydrolysis through use of a reagent that generates a luminescent signal proportional to the amount of ATP present. In this way, inhibition of the soluble-CD39-mediated ATP hydrolysis can be assessed. Briefly, dose ranges of anti-CD39 antibodies from 100 μg/ml to 6×10^−3 μg/ml were incubated with 400 ng/ml of soluble recombinant human CD39 protein having the amino acid sequence described in the Methods section (SEQ ID NO: 54), for 1h at 37° C. 20 μM ATP was added to the plates for 30 additional minutes at 37° C. before addition of CTG (Cell Titer Glo) reagent. Emitted light was quantified using an Enspire™ luminometer after a short incubation period of 5 min in the dark. Anti-CD39 antibody efficacy was determined by comparing emitted light in presence of antibody with ATP alone (maximal light emission) and ATP together with soluble CD39 protein (minimal light emission).

B1: I-394: anti-CD39 antibody, VH SEQ ID NO: 6, VL SEQ ID NO: 7; heavy/light chains SEQ ID NOS: 52 and 53 (antibody)
heavy: EVQLQQSGPELVKPGASVKMSCKASGYTFTDYNMHWVKQSHGRTLEWIGYIVPLNGGSTFNQKFKGRATLTVNTSSRTAYMELRSLTSEDSAAYYCARGGTRFAYWGQGTLVTVSAASTKGPSVFPLAPSSKSTSGGTAALGCLVKDYFPEPVTVSWNSGALTSGVHTFPAVLQSSGLYSLSSVVTVPSSSLGTQTYICNVNHKPSNTKVDKRVEPKSCDKTHTCPPCPAPEAEGAPSVFLFPPKPKDTLMISRTPEVTCVVVDVSHEDPEVKFNWYVDGVEVHNAKTKPREEQYNSTYRVVSVLTVLHQDWLNGKEYKCKVSNKALPSSIEKTISKAKGQPREPQVYTLPPSREEMTKNQVSLTCLVKGFYPSDIAVEWESNGQPENNYKTTPPVLDSDGSFFLYSKLTVDKSRWQQGNVFSCSVMHEALHNHYTQKSLSLSPGK
light: DIVLTQSPASLAVSLGQRATISCRASESVDNFGVSFMYWFQQKPGQPPNLLIYGASNQGSGVPARFRGSGSGTDFSLNIHPMEADDTAMYFCQQTKEVPYTFGGGTKLEIKRTVAAPSVFIFPPSDEQLKSGTASVVCLLNNFYPREAKVQWKVDNALQSGNSQESVTEQDSKDSTYSLSSTLTLSKADYEKHKVYACEVTHQGLSSPVTKSFNRGEC
modifications: Chimeric homo sapiens mus musculus
[1]
  inhibition of the enzymatic activity of cellular (cell-membrane bound) CD39: substantially fully blocks; also recorded: inhibit
[1]; FIG. 2A
  potency and maximal inhibition of cellular CD39 compared to BY40: greater potency and maximal inhibition; also recorded: greater potency at all concentrations as well as greater maximal inhibition
CD8 T cells; added ATP 200 μM
  potentiation of anti-CD73 antibodies in restoring CD8 T cell proliferation: strongly potentiation
CD8 T cells; concentrations of 0.1 μg/ml and 1 μg/ml, added ATP
  enhancement of CD8 T cell proliferation, alone without anti-CD73: remarkable enhancement
[2]
  blocking CD39 enzymatic activity in cells expressing cynomolgus CD39: blocks; also recorded: highly potent
[3]
  maximum inhibition achieved, soluble CD39 protein: 74.9%
[3]; 400 ng/ml soluble CD39, 20 μM ATP
  inhibition of the enzymatic (ATPase) activity of soluble CD39 protein: strong inhibition; also recorded: inhibits; also recorded: highly potent
[3]; added to hybridoma supernatant
  inhibition of ATPase activity of soluble CD39 when antibody is spiked into negative hybridoma supernatants: did not restore
[3]; purified with Protein A coated beads
  inhibition of ATPase activity of soluble CD39 after purification from the negative supernatant: again able to inhibit
